These results are taken from IntAct's records for PubMed 31515488.

First the molecules themselves.
B1: Fibronectin type III and SPRY domain-containing protein 2 (Homo sapiens), A1L4K1 (parent)
chain: MEEESGEELGLDRSTPKDFHFYHMDLYDSEDRLHLFPEENTRMRKVVQAEMANESRGAGDGKAQRDLQEEVDELVHLYGLEDDHELGDEFVDENIPRTGVSEYPPYMMKRRDPAREQRDWRLSGEAAEAEDLGFGGWGSAGQCQDLREAYRYTHGRASEEYECYVIPEEEDEEEAADVFCVTCKTPIRAFQKVFDEHKEHEVIPLNEALESAKDEIHKNMYKLEKQIIEMENFANHLEEVFITVEENFGKQEQNFESHYNEILETLAQKYEEKIQALGEKKKEKLEALYGQLVSCGENLDTCKELMETIEEMCHEEKVDFIKDAVAMADRLGKFLKTKTDVEISAQPEFEDQTLDFSDVEQLMGSINTIPAPSAPVINPQVPNSATGSSVRVCWSLYSDDTVESYQLSYRPVQDSSPGTDQAEFTVTVKETYCSVTNLVPNTQYEFWVTAHNRAGPSPSSERAVYMTAPSPPIIKTKEIRSCEEAVLICWESGNLNPVDSYTVELTQAESPEASGVTESVVGIPTCESVVQLQPGRSYIIYVRALNMGGPSVRSEPATVHTIGSYFRLNKDTCHPWLTISEDGLTAVRSERRTPARELSPSDTHFTRCVAVMGNLIPVRGHHYWEVEVDEHLDYRVGVAFADVRKQEDLGANCLSWCMRHTFASSRHKYEFLHNRTTPDIRITVPPKKIGILLDYEHSKLSFFNVDLSQHLYTFSCQLHEFVHPCFSLEKPGCLKVHNGISMPKHVTFY
partner: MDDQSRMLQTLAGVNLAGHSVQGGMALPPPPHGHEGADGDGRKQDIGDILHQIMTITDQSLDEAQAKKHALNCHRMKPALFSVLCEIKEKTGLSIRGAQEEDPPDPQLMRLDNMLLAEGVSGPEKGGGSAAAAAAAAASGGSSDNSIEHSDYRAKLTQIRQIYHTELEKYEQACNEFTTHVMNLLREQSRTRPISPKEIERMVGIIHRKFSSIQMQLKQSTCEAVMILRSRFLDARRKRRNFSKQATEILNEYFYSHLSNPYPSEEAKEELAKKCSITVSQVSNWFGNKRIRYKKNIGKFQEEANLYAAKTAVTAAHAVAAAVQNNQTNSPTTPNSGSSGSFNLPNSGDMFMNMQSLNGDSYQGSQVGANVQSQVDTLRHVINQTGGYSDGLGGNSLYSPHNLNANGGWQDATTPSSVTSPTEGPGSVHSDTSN
B2: Prolyl 4-hydroxylase subunit alpha-3 (Homo sapiens), Q7Z4N8 (parent)
chain: MGPGARLAALLAVLALGTGDPERAAARGDTFSALTSVARALAPERRLLGLLRRYLRGEEARLRDLTRFYDKVLSLHEDSTTPVANPLLAFTLIKRLQSDWRNVVHSLEASENIRALKDGYEKVEQDLPAFEDLEGAARALMRLQDVYMLNVKGLARGVFQRVTGSAITDLYSPKRLFSLTGDDCFQVGKVAYDMGDYYHAIPWLEEAVSLFRGSYGEWKTEDEASLEDALDHLAFAYFRAGNVSCALSLSREFLLYSPDNKRMARNVLKYERLLAESPNHVVAEAVIQRPNIPHLQTRDTYEGLCQTLGSQPTLYQIPSLYCSYETNSNAYLLLQPIRKEVIHLEPYIALYHDFVSDSEAQKIRELAEPWLQRSVVASGEKQLQVEYRISKSAWLKDTVDPKLVTLNHRIAALTGLDVRPPYAEYLQVVNYGIGGHYEPHFDHATSPSSPLYRMKSGNRVATFMIYLSSVEAGGATAFIYANLSVPVVRNAALFWWNLHRSGEGDSDTLHAGCPVLVGDKWVANKWIHEYGQEFRRPCSSSPED
B3: Zinc finger and BTB domain-containing protein 9 (Homo sapiens), Q96C00 (parent)
chain: METPTPLPPVPASPTCNPAPRTIQIEFPQHSSSLLESLNRHRLEGKFCDVSLLVQGRELRAHKAVLAAASPYFHDKLLLGDAPRLTLPSVIEADAFEGLLQLIYSGRLRLPLDALPAHLLVASGLQMWQVVDQCSEILRELETSGGGISARGGNSYHALLSTTSSTGGWCIRSSPFQTPVQSSASTESPASTESPVGGEGSELGEVLQIQVEEEEEEEEDDDDEDQGSATLSQTPQPQRVSGVFPRPHGPHPLPMTATPRKLPEGESAPLELPAPPALPPKIFYIKQEPFEPKEEISGSGTQPGGAKEETKVFSGGDTEGNGELGFLLPSGPGPTSGGGGPSWKPVDLHGNEILSGGGGPGGAGQAVHGPVKLGGTPPADGKRFGCLCGKRFAVKPKRDRHIMLTFSLRPFGCGICNKRFKLKHHLTEHMKTHAGALHACPHCGRRFRVHACFLRHRDLCKGQGWATAHWTYK
partner: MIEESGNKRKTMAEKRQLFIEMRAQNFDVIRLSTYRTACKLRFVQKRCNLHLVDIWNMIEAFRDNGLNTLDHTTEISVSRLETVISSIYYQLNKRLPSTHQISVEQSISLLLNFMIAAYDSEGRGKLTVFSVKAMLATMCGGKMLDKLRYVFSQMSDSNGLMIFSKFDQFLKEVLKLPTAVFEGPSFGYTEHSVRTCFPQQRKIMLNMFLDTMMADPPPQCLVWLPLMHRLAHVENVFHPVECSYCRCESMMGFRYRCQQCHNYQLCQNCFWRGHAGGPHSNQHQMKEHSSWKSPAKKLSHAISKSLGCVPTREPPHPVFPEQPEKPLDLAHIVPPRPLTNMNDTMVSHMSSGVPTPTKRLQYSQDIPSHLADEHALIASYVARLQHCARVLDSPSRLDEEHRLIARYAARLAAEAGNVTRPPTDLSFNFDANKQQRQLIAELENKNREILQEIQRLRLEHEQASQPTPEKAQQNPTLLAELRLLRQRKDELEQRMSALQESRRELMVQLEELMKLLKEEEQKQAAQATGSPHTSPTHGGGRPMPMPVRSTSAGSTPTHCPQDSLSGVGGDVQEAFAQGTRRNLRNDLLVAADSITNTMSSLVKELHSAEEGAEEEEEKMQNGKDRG
B4: AP-4 complex accessory subunit RUSC1 (Homo sapiens), Q9BVN2 (parent)
chain: MLSPQRALLCNLNHIHLQHVSLGLHLSRRPELQEGPLSTPPPPGDTGGKESRGPCSGTLVDANSNSPAVPCRCCQEHGPGLENRQDPSQEEEGAASPSDPGCSSSLSSCSDLSPDESPVSVYLRDLPGDEDAHPQPSIIPLEQGSPLASAGPGTCSPDSFCCSPDSCSGASSSPDPGLDSNCNALTTCQDVPSPGLEEEDERAEQDLPTSELLEADDGKIDAGKTEPSWKINPIWKIDTEKTKAEWKTTENNNTGWKNNGNVNSSWKSEPEKFDSGWKTNTRITDSGSKTDAGKIDGGWRSDVSEEPVPHRTITSFHELAQKRKRGPGLPLVPQAKKDRSDWLIVFSPDTELPPSGSPGGSSAPPREVTTFKELRSRSRAPAPPVPPRDPPVGWALVPPRPPPPPVPPRRKKNRPGLQPIAEGQSEEGRAVSPAAGEEAPAAKEPGAQAGLEVRSSWSFAGVPGAQRLWMAEAQSGTGQLQEQKKGLLIAVSVSVDKIISHFGAARNLVQKAQLGDSRLSPDVGHLVLTTLCPALHALVADGLKPFRKDLITGQRRSSPWSVVEASVKPGSSTRSLGTLYSQVSRLAPLSSSRSRFHAFILGLLNTKQLELWFSSLQEDAGLLSLLYLPTGFFSLARGGCPSLSTELLLLLQPLSVLTFHLDLLFEHHHHLPLGPPQAPAPPGPPPALQQTMQAMLHFGGRLAQSLRGTSKEAASDPSDSPNLPTPGSWWEQLTQASRVYASGGTEGFPLSRWAPGRHGTAAEEGAQERPLPTDEMAPGRGLWLGRLFGVPGGPAENENGALKSRRPSSWLPPTVSVLALVKRGAPPEMPSPQELEASAPRMVQTHRAVRALCDHTAARPDQLSFRRGEVLRVITTVDEDWLRCGRDGMEGLVPVGYTSLVL

The variants in one test derive from B1. Particulars: with pbx3_human PBX3, P40426.
Consider K333T, for which the “effect of a mutation on the interaction” value is “with no effect”.
The same measure, in the same setting: the same measure for E720K: “with no effect”.

The variants in another test derive from B2. Particulars: with maga2_human MAGEA2, P43356.
Chain of maga2_human MAGEA2, P43356 (P43356 whole entry): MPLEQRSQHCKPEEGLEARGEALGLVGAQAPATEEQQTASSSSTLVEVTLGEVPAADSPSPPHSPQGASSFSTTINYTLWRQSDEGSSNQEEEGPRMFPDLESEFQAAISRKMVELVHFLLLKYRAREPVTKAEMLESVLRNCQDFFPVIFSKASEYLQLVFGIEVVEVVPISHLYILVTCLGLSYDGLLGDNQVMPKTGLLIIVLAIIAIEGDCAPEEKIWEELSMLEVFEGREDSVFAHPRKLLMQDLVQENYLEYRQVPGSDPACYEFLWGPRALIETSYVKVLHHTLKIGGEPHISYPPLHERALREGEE
S378L: the “effect of a mutation on the interaction” value is on record as “disrupting interaction strength”.

In the next test the parent is B2. The conditions noted are these: with nutm1_human NUTM1, Q86Y26.
Chain of nutm1_human NUTM1, Q86Y26 (Q86Y26 whole entry): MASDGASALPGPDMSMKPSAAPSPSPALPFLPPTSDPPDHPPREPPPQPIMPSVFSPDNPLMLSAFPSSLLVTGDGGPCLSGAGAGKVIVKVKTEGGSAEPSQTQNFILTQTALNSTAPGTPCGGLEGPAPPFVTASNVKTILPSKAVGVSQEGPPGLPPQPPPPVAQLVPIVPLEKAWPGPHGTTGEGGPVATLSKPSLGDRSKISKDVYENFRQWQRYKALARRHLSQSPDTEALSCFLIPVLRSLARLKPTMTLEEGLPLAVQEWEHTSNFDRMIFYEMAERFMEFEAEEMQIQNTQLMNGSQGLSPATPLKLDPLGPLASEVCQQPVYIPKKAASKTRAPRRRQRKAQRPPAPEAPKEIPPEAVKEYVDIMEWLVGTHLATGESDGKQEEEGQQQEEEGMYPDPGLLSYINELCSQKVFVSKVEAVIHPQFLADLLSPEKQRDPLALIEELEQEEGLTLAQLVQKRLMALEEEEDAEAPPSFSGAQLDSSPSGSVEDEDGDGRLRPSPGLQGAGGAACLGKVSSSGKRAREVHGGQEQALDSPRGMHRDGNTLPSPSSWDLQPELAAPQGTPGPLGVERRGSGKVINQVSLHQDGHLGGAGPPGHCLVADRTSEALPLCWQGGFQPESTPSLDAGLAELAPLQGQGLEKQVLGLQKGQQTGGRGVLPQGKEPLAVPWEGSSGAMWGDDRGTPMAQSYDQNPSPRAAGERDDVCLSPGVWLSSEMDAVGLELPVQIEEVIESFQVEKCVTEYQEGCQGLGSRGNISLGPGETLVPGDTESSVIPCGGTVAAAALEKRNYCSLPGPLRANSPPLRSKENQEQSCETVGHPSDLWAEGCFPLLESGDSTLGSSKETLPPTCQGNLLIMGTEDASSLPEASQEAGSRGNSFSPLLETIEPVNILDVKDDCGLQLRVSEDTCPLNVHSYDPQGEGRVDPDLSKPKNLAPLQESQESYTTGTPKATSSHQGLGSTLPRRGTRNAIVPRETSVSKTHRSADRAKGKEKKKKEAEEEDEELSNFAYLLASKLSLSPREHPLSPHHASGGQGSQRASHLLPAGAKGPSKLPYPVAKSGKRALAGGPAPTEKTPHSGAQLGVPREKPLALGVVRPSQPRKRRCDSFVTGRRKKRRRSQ
Take S378L: the “effect of a mutation on the interaction” value is reported as “disrupting interaction strength”.

Another test covers variants of B3. The conditions noted are these: with dtnb_human DTNB.
Turning to S173C, the “effect of a mutation on the interaction” value is given as “with no effect”.

In another test the parent is B4. Particulars: with rbpms_human RBPMS.
For the variant A795T, the “effect of a mutation on the interaction” value is on record as “with no effect”.
Turning to S614F, the “effect of a mutation on the interaction” value was “with no effect”.
On the same count and under the same terms, in the case of G638S it was “with no effect”.

In a further test the parent is B4. The conditions noted are these: with pnma1_human PNMA1, Q8ND90.
Chain of pnma1_human PNMA1, Q8ND90 (Q8ND90 whole entry): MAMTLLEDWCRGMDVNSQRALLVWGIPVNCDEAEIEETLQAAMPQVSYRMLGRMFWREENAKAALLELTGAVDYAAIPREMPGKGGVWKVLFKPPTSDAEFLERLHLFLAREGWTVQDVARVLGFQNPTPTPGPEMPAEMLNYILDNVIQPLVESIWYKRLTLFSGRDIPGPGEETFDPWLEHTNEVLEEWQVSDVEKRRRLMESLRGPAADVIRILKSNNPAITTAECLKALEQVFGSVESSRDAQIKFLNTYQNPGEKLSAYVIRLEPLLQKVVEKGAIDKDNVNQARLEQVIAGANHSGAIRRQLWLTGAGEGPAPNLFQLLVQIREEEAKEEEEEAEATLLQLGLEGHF
With S614F, the “effect of a mutation on the interaction” value is “with no effect”.
On the same count and under the same terms, the same measure for G638S: “with no effect”.

The next test covers variants of B4. The conditions noted are these: with fam9b_human FAM9B.
For the variant S614F, the “effect of a mutation on the interaction” value was “disrupting interaction strength”.
The same measure, in the same setting: in the case of G638S it was “with no effect”.
